Laboratory results: patent US20230250135A1

Tests used:
Conditions in all cases: remark: other sources report otherwise
[1] = biological target: UFV161453 (influenza A virus A/Hong Kong/1/68 (H3N2))
[2] = biological target: UFV161333 (influenza A virus A/Hong Kong/1/68 (H3N2)); test: Binding-AlphaLISA, Expi293F supernatant, normalized to UFV161686
[3] = biological target: UFV161715 (influenza A virus A/Hong Kong/1/68 (H3N2)); test: Binding-AlphaLISA, Expi293F supernatant, normalized to UFV161333
[4] = biological target: UFV161721 (influenza A virus A/Hong Kong/1/68 (H3N2)); test: as above

B1: CR9114 (antibody, V domains shown)
VH: QVQLVQSGAEVKKPGSSVKVSCKSSGGTSNNYAISWVRQAPGQGLDWMGGISPIFGSTAYAQKFQGRVTISADIFSNTAYMELNSLTSEDTAVYFCARHGNYYYYSGMDVWGQGTTVTVSS
VL: SYVLTQPPAVSGTPGQRVTISCSGSDSNIGRRSVNWYQQFPGTAPKLLIYSNDQRPSVVPDRFSGSKSGTSASLAISGLQSEDEAEYYCAAWDDSLKGAVFGGGTQLTVL
[1]
  binding relative to reference UFV161454: 61%
[2]
  fold increase in binding relative to reference UFV161686: 5 fold
[3]
  binding relative to reference UFV161333: 145%
[4]
  binding relative to reference UFV161333: 145%
